# Data from the nanobody polyreactivity screen of Harvey et al. (2022).
# Assay: yeast display, Sf9 membrane polyspecificity reagent, FACS + sequencing; frameworks hold sequencing errors
# Method in brief: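 A nanobody's polyreactivity label depends on the gate it was sorted from. Yeast display cells were stained with 10% biotinylated, detergent-solubilized Sf9 membrane reagent for 1 hour at 4 °C, enriched on streptavidin microbeads and sorted by FACS. The low and high (top ~1%) gates were set on anti-HA fluorescence for expression and streptavidin fluorescence for reagent binding.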
row,Sequence,polyreactivity (PSR sort gate)
1,QVQLVESGGGLVQAGGSLRRSCAAYGRIFTMNAMGWYRQAPGKESELVAVISRSGCSTYYADSVKGRFTISRDNAKNTVYLQMNSLNPEDTAVYYCNAVPIYYAWRRNKPFDYWGLGTQVTVSS,low polyreactivity
2,QVQLVESGGGLVQAGGSLRVSCAASGFIIEVNSMAWYRQAPGKERELVARIDWSGGSTYYADSVKGRFTISRDNAKNTVFLQMNSLIPEDTAVYYCAVVASRSHTETPEYDYWGQGTQVTVSS,low polyreactivity
3,QVQLVESGGGLVQAGGSLRVSCAASGFTFGPNAMGWYSQAPGKERELVAAISQSGGSTYADSEKGRFTISRDNAKNTDYLHMNSLKPEDTAVYYCAAEFPDYYWWYEYWGQGTQVTVSS,high polyreactivity
4,QVQLVESGGGLVQAGGSLRVSCAASGFTFYLYAMGWYRQAPGKERELVAAITWSGGRTYYADSVKGRFTISRDNAKNTVYLQMNSLKPEDTAVYNCAAVVRKQLSAPSDYWGQGTQVTVSS,high polyreactivity
5,QVQLVESGGGLVQAGGSLRVSCAASGFTFYRYAMGWYRQAPGKERELVAAITWSGGSTYYADSVKGRFTISRDNAKNTVYLQMNSLKPEDTAVYYCAADIYDGGFDYWGQGTQVTVSS,low polyreactivity
6,QVQLVESGGGLVQAGGSLRVSCAASGIIFRIYAMGWYRQAPGKEREFVAAISGSGDSTYYADSVKGRLTISRDNAKTTVYLQMNSLKPEDTAVYYCAADWTLVYYHEDYWGQGTQVTVSS,low polyreactivity
7,QVQLVESGGGLVQAGGSLRVSCAASGRIFFPYDMGWYRQAPGKERELVAAITNSGGRTYYADSVKGRFTISRDKAKNTVYLQMNSLKPEDTAVYYCNADAYEFRWVKHYDYWGQGTQVTVSS,low polyreactivity
8,QVQLVESGGGLVQAGGSLRVSCAASGRIFRWYAMGWYRQAPGKERELVAAITSRGTSTYYADSVKGRFTISRDNAKNTDYLQMNSLKPEDTAVYYCNAVPSRGYDYWGQGTQVTVSS,high polyreactivity
9,QVQLVESGGGLVQAGGSLRVSCAASGRIFVQYDMGWYRQAPGKERELVAAINDSGDITYYADSVKGRFTISRDNAKNTVYLQMTSLKPEDTAVYSCAASAAYYGFYKSVTYDYWGQGTQVSVSS,low polyreactivity
10,QVQLVESGGGLVQAGGSLRVSCAASGRIFWYNDMGWYRQAPGKERELVAAITARGTRTHYADSVKGRFTISRDNAKKTVYLQMNSLKPEDTAVYYCAKGWYTVVWDAPVFSERGEYWGQGTQVTVSS,low polyreactivity
11,QVQLVESGGGLVQAGGSLRVSCAASGRTFGYNAMGWYRQAPGKERELVATISWGGGSTYYADSVKVRFTISRDNAKNTVYLQMNSLKPEDTAVYYCAATYWTYPYHYQYKYDYWGQGTQVTVSS,high polyreactivity
12,QVQLVESGGGLVQAGGSLRVSCAASGRTFRSYAMGWYRQAPGKERELVAAIRRGGSTNYADSVKGRFPISRDNAKYTVYLQMNSLKPEDTAVYYCAARYTRWRYNYKDYDYWGQGTQVTVSS,high polyreactivity
13,QVQLVESGGGLVQAGGSLRVSCAASGRTFRYYAMGWYRQAPGKERELVASISDGGSTNYADSVKGRFTISRDNAKNTVYLQMNSQKPEDTAVYYCNAKAYVWYLYDEFGYWGQGTQVTVSS,low polyreactivity
14,QVQLVESGGGLVQAGGSLRVSCAASGSIFGYYAMGWSRQAPGKERELVAGINWSGGSTYADSVKGRFTISRDNAKNTVYLKMNSLKPEDTAVYYCYLRYRKYSSAKYDYWGQGTQVTVSS,high polyreactivity
15,QVQLVESGGGLVQAGGSLRVSCAASGSIFQYYGMGWYRQAPGKERELVAAISRGGSTNYADSVKGRFTISRDYAKNTGYLQMNSLKPEDTAVYYCNARTYRKAYSGYNYWGQGTQVTVSS,high polyreactivity
16,QVQLVESGGGLVQAGGSLRVSCAASGSIFRWYTMGCYRQAPGKEREFVADISWSGGRTYYADSVKGRFTISRDNASYSVYLQMNCLKPEDTAVYYCNAEHNTRYDYWGQGTQVSVSS,low polyreactivity
